Results taken from paper PMC11591356, “Immunomodulatory Effects of the Tobacco Defensin NaD1” (Antibiotics, 2024).
Like-named read-outs stand apart in the source and are kept apart here. Ends that are not written are not given here.

What was measured:
[1] = test system: Caco-2 cells not in a monolayer; details: 24 h, resazurin
Procedure: (§1) The cytotoxic effects of the tobacco defensin NaD1 towards PBMCs or Caco-2 cells were investigated in 96-well plates using the resazurin method as previously described. In brief, 4 × 10^5 per well Caco-2 cells not in a monolayer as well as Caco-2 cells in a monolayer in DMEM/F12 (1:1) medium with 10% FBS or 2 × 10^6 PBMCs per well in RPMI-1640 also with 10% FBS were incubated with serial dilutions of NaD1 at final concentrations from 0.39 to 50 μM or from 2.1 to 180 μM for 24 h. After that, resazurin (Sigma, St. Louis, MO, USA) was added at a final concentration of 70 µM and the plates were incubated overnight (16–18 h). Untreated cells and cells treated by non-ionogenic detergent Triton X-100 were used as negative and positive controls, respectively. […] The cell viability was estimated by resorufin fluorescence registered at […] via the following equation: cell viability (%) = (Fsample/Fcontrol) × 100%. Experiment was carried out twice in duplicate.

[2] = test system: PBMCs; experiment: Cytotoxicity assay, resazurin method, PBMCs; format: cell-based, human; details: for Cell viability: PBMCs, 24 h, resazurin
Text: Peripheral blood mononuclear cells (PBMCs) from healthy donors were purchased from American Type Culture Collection (ATCC PCS-800-011). Primary monocytes were isolated from PBMCs by adherence to the plastic surface. For that, PBMCs were thawed, resuspended in RPMI-1640 culture medium (Corning, Corning, NY, USA) without serum at a concentration of 2 × 10^6 cells/mL, seeded into the wells of a 24-well plate and placed in a humidified CO2-intubator (CellXpert C170i, Eppendorf, Hamburg, Germany) for 1 h. After that, non-adherent cells were removed from the wells and attached monocytes were thoroughly washed with PBS and cultured in a CO2-intubator in complete RPMI-1640 containing 10% human serum (HS Type AB, Capricorn Scientific, Ebsdorfergrund, Germany) and 1×antibiotic-antimycotic (1×AA) solution (Sigma, St. Louis, MO, USA).
as §1

[3] = test system: human smooth muscles (CASMC); set-up: method as in PMID 28179997; details: read-out: IC50, MTT cell viability assay; cited from earlier work
[4] = test system: Caco-2 cells in a monolayer; experiment: Cytotoxicity assay, resazurin method, Caco-2 cells in a monolayer; format: cell-based, human; details: 24 h; for Cell viability: Caco-2 monolayer
Procedure: as §1

[5] = test system: umbilical vein endothelial cells (HUVEC); set-up: method as in PMID 28179997; details: read-out: IC50, MTT cell viability assay; cited from earlier work
[6] = test system: human dermal fibroblast cells (AHDF); set-up: method as in PMID 28179997; details: read-out: IC50, MTT cell viability assay; cited from earlier work

NaD1: Recombinant tobacco floral defensin NaD1 (UNIPROT Q8GTM0), obtained by heterologous expression in E. coli; FITC-labeled in the permeability assay (RECKTESNTFPGICITKPPCRKACISEKFTDGHCSKILRRCLCTKPC; cysteine pairing not given here; also: FITC label; UniProt Q8GTM0 26-72, looked up)
CC50 ([1]; calculated): 61.8 µM
Cell viability ([1]; peptide 53.3 µM): approximately 62%
Cell viability ([1]; peptide 180 μM): 8%
Cell viability ([2]; peptide 50 µM, twice in duplicate): approximately 90%
Cell viability ([2]; peptide 180 μM): more than 50%
Cytotoxic effect against the tested immune and epithelial cells ([2]; peptide 12.5 µM, PBMCs and Caco-2): did not exhibit a cytotoxic effect
IC50 [3]: ~10 µM
Cell viability ([4]; peptide 25 µM): approximately 85%
Cell viability ([4]; peptide 50 µM): ~70%
Cytotoxic effect on Caco-2 cells in a monolayer ([4]; peptide 12.5 µM): no effects
IC50 [5]: ~10 µM
IC50 [6]: ~10 µM
